Laboratory results taken from PMC8318587, “Structure-guided microbial targeting of antistaphylococcal prodrugs” (eLife, 2021).
Values after ≈ are worked out from the molar mass of the structure shown. Read-outs that look alike come from different tables or passages of the source.

What was measured:
S. aureus Newman [1] = assay: Minimum inhibitory concentration (MIC) in liquid LB media; format: cell-based; settings: Staphylococcus aureus
Protocol: (§1) Antibiotic resistance frequency was determined on LB agar plates containing 4× and 10×, the minimum inhibitory concentrations of several antibiotics. MICs were determined for S. aureus Newman in liquid LB media. […] Briefly, S. aureus Newman was grown in LB media to late log-phase and centrifuged at 4000 × g for 15 min before resuspension at an OD600 nm of 30 (~1E11 CFU/mL) in LB media. One hundred microliter aliquots of concentrated S. aureus was plated in duplicate on selective and non-selective plates and incubated at 37°C. After 24 hr, mutation rates were calculated by counting the number of colonies present and dividing by the total number of colonies plated. Experiments were performed in triplicate.

S. aureus Newman [2] = format: cell-based, Staphylococcus aureus; settings: for Mutational frequency at 4× MIC / Mutational frequency at 10× MIC: LB agar, 24 hr, mean ± SD
Protocol: as §1

[3] = substrate: CC(C)OCC(=O)OCOc1ccc2c(c1)Oc1cc(OCOC(=O)COC(C)C)ccc1C21OC(=O)c2ccccc21; assay: Esterase substrate specificity, fluorogenic SAR library kinetics; format: biochemical, Staphylococcus aureus; settings: other: SaFrmB 15 µg/mL, pH 7.5, 37°C
Protocol: (§2) Kinetic measurements were performed according to [White et al., 2018] with minor variation. Lyophilized human and mouse sera were resuspended according to manufacturer instructions in highly pure, filtered water at protein concentrations of 85 mg/mL and 70 mg/mL, respectively. One milliliter of resuspended serum was added to a 24 mL mastermix for a final concentration of 31.25 mM Tris pH 7.5, 312.5 mM NaCl, 1.25 mM MgCl2, 12.5% glycerol, and 3.4 mg/mL or 2.8 mg/mL protein for human and mouse serum, respectively. For purified proteins, 5 mL of a 75 µg/mL stock was added to yield a 20 mL mastermix containing 31.25 mM Tris pH 7.5, 312.5 mM NaCl, 1.25 mM MgCl2, 12.5% glycerol, and 18.75 µg/mL protein. Mastermix was stored on ice when not in use. Twenty microliters of mastermix was transferred to a black, 96-well half area microplate (Corning, CLS3993) and prewarmed at 37°C. Fluorogenic substrates were prepared as 10 mM stock solutions in 100% DMSO and were diluted in water to a starting concentration of 500 µM. Enzyme catalyzed substrate hydrolysis was initiated by addition of 5 µL substrate dilution in technical duplicate to the prewarmed serum or protein solution. Final assay concentrations were as follows: 25 mM Tris pH 7.5, 250 mM NaCl, 1 mM MgCl2, 10% glycerol, and protein at a concentration of 2.72 mg/mL (human serum), 2.24 mg/mL (mouse serum), or 15 µg/mL (FrmB, GloB). The resulting change in fluorescence (λex = 485 nm, λem = 520 nm) was followed for 15 min at 37°C, collecting data every 30 s on a FLUOstar Omega microplate reader (BMG Labtech). Fluorescence measurements were converted to molar concentrations using a fluorescein standard curve (2.5 nmol–0.6 pmol). The initial rates of reaction were measured three independent times with two technical replicates per measurement and fit to a line using GraphPad Prism (GraphPad Software, La Jolla, CA). Initial rates of reaction were plotted versus the concentration of substrate and fit to a standard Michaelis–Menten equation (v = Vmax[S]/(Km + [S])), yielding estimates of Vmax and Km. Values for kcat and kcat/Km were calculated based on amount of enzyme added when purified enzymes were used.

[4] = substrate: CC(C)SCC(=O)OCOc1ccc2c(c1)Oc1cc(OCOC(=O)CSC(C)C)ccc1C21OC(=O)c2ccccc21; assay: as above; format: biochemical, Staphylococcus aureus; settings: other: SaFrmB 15 µg/mL, pH 7.5, 37°C
Protocol: as §2

[5] = substrate: CCCC(=O)OCOc1ccc2c(c1)Oc1cc(OCOC(=O)CCC)ccc1C21OC(=O)c2ccccc21; assay: as above; format: biochemical, Staphylococcus aureus; settings: other: SaFrmB 15 µg/mL, pH 7.5, 37°C
Protocol: as §2

[6] = substrate: CCCCC(=O)OCOc1ccc2c(c1)Oc1cc(OCOC(=O)CCCC)ccc1C21OC(=O)c2ccccc21; assay: as above; format: biochemical, Staphylococcus aureus; settings: other: SaFrmB 15 µg/mL, pH 7.5, 37°C
Protocol: as §2

[7] = substrate: CCCOCC(=O)OCOc1ccc2c(c1)Oc1cc(OCOC(=O)COCCC)ccc1C21OC(=O)c2ccccc21; assay: as above; format: biochemical, Staphylococcus aureus; settings: other: SaFrmB 15 µg/mL, pH 7.5, 37°C
Protocol: as §2

[8] = substrate: CCOC(C)C(=O)OCOc1ccc2c(c1)Oc1cc(OCOC(=O)C(C)OCC)ccc1C21OC(=O)c2ccccc21; assay: as above; format: biochemical, Staphylococcus aureus; settings: other: SaFrmB 15 µg/mL, pH 7.5, 37°C
Protocol: as §2

[9] = substrate: CCOCC(=O)OCOc1ccc2c(c1)Oc1cc(OCOC(=O)COCC)ccc1C21OC(=O)c2ccccc21; assay: as above; format: biochemical, Staphylococcus aureus; settings: other: SaFrmB 15 µg/mL, pH 7.5, 37°C
Protocol: as §2

[10] = substrate: CCSCCC(=O)OCOc1ccc2c(c1)Oc1cc(OCOC(=O)CCSCC)ccc1C21OC(=O)c2ccccc21; assay: as above; format: biochemical, Staphylococcus aureus; settings: other: SaFrmB 15 µg/mL, pH 7.5, 37°C
Protocol: as §2

[11] = substrate: COC(C)(C)C(=O)OCOc1ccc2c(c1)Oc1cc(OCOC(=O)C(C)(C)OC)ccc1C21OC(=O)c2ccccc21; assay: as above; format: biochemical, Staphylococcus aureus; settings: other: SaFrmB 15 µg/mL, pH 7.5, 37°C
Protocol: as §2

[12] = substrate: COC(C)C(=O)OCOc1ccc2c(c1)Oc1cc(OCOC(=O)C(C)OC)ccc1C21OC(=O)c2ccccc21; assay: as above; format: biochemical, Staphylococcus aureus; settings: other: SaFrmB 15 µg/mL, pH 7.5, 37°C
Protocol: as §2

[13] = substrate: COCC(=O)OCOc1ccc2c(c1)Oc1cc(OCOC(=O)COC)ccc1C21OC(=O)c2ccccc21; assay: as above; format: biochemical, Staphylococcus aureus; settings: other: SaFrmB 15 µg/mL, pH 7.5, 37°C
Protocol: as §2

[14] = substrate: COCCC(=O)OCOc1ccc2c(c1)Oc1cc(OCOC(=O)CCOC)ccc1C21OC(=O)c2ccccc21; assay: as above; format: biochemical, Staphylococcus aureus; settings: other: SaFrmB 15 µg/mL, pH 7.5, 37°C
Protocol: as §2

[15] = substrate: CSCCC(=O)OCOc1ccc2c(c1)Oc1cc(OCOC(=O)CCSC)ccc1C21OC(=O)c2ccccc21; assay: as above; format: biochemical, Staphylococcus aureus; settings: other: SaFrmB 15 µg/mL, pH 7.5, 37°C
Protocol: as §2

[16] = S. aureus Newman, liquid LB media, read-out: MIC

Molecule: CCC[C@@H]1C[C@@H](C(=O)N[C@@H]([C@H]2O[C@H](SC)[C@H](O)[C@@H](O)[C@H]2O)[C@H](C)Cl)N(C)C1 [Clindamycin]
- MIC (S. aureus Newman [1]; [16]): 0.25 µg/mL (≈ 0.588 µM)
- Mutational frequency at 4× MIC (S. aureus Newman [2]): <1 E-10
- Mutational frequency at 10× MIC (S. aureus Newman [2]): <1 E-10

Molecule: CC(=O)NC[C@H]1CN(c2ccc(N3CCOCC3)c(F)c2)C(=O)O1 [Linezolid]
- MIC (S. aureus Newman [1]; [16]): 1.67 µg/mL (≈ 4.95 µM)
- Mutational frequency at 4× MIC (S. aureus Newman [2]): <1 E-10
- Mutational frequency at 10× MIC (S. aureus Newman [2]): <1 E-10

Molecule: CCOc1ccc2ccccc2c1C(=O)N[C@@H]1C(=O)N2[C@@H]1SC(C)(C)[C@@H]2C(=O)O [Nafcillin]
- MIC (S. aureus Newman [1]; [16]): 0.5 µg/mL (≈ 1.21 µM)
- Mutational frequency at 4× MIC (S. aureus Newman [2]): <1 E-10
- Mutational frequency at 10× MIC (S. aureus Newman [2]): <1 E-10

Molecule: CO[C@H]1/C=C/O[C@@]2(C)Oc3c(C)c(O)c4c(O)c(c(/C=N/N5CCN(C)CC5)c(O)c4c3C2=O)NC(=O)/C(C)=C\C=C\[C@H](C)[C@H](O)[C@@H](C)[C@@H](O)[C@@H](C)[C@H](OC(C)=O)[C@@H]1C [Rifampicin]
- MIC (S. aureus Newman [1]; [16]): 0.0075 µg/mL (≈ 0.00911 µM)
- Mutational frequency at 4× MIC (S. aureus Newman [2]): 8.96 ± 0.20 E-08
- Mutational frequency at 10× MIC (S. aureus Newman [2]): 7.64 ± 2.10 E-08
- Spontaneous resistance frequency (S. aureus Newman [2]; at 4 and 10 times the MIC): ~ 8E-8

Molecule: CN[C@H](CC(C)C)C(=O)N[C@H]1C(=O)N[C@@H](CC(N)=O)C(=O)N[C@H]2C(=O)N[C@H]3C(=O)N[C@H](C(=O)N[C@H](C(=O)O)c4cc(O)cc(O)c4-c4cc3ccc4O)[C@H](O)c3ccc(c(Cl)c3)Oc3cc2cc(c3O[C@@H]2O[C@H](CO)[C@@H](O)[C@H](O)[C@H]2O[C@H]2C[C@](C)(N)[C@H](O)[C@H](C)O2)Oc2ccc(cc2Cl)[C@H]1O [Vancomycin]
- MIC (S. aureus Newman [1]; NEWMAN): 2 µg/mL (≈ 1.38 µM)
- Mutational frequency at 4× MIC (S. aureus Newman [2]): <1 E-10
- Mutational frequency at 10× MIC (S. aureus Newman [2]): <1 E-10

B1: SaFrmB (Staphylococcus aureus subsp. aureus str. Newman) (protein)
chain: MAYISLNYHSPTIGMHQNLTVILPEDQSFFNSDTTVKPLKTLMLLHGLSSDETTYMRYTSIERYANEHKLAVIMPNVDHSAYANMAYGHSYYDYILEVYDYVHQIFPLSKKRDDNFIAGHSMGGYGTIKFALTQGDKFAKAVPLSAVFEAQNLMDLEWNDFSKEAIIGNLSSVKGTEHDPYYLLDKAVAEDKQIPKLLIMCGKQDFLYQDNLDFIDYLSRINVPYQFEDGPGDHDYAYWDQAIKRAITWMVND
notes: made in house; host or cells: E. coli BL21 (DE3)
- Km [3]: 9.17 µM
- Vmax [3]: 0.597 pmol*min-1*μg protein-1
- kcat [3]: 0.112 10-3 s-1
- kcat/Km [3]: 12.3 M⁻¹ s⁻¹
- Km [4]: 36.3 µM
- Vmax [4]: 0.629 pmol*min-1*μg protein-1
- kcat [4]: 0.118 10-3 s-1
- kcat/Km [4]: 3.27 M⁻¹ s⁻¹
- Km [5]: 30.4 µM
- Vmax [5]: 0.149 pmol*min-1*μg protein-1
- kcat [5]: 0.0280 10-3 s-1
- kcat/Km [5]: 0.921 M⁻¹ s⁻¹
- Km [6]: 26.5 µM
- Vmax [6]: 0.0637 pmol*min-1*μg protein-1
- kcat [6]: 0.0120 10-3 s-1
- kcat/Km [6]: 0.452 M⁻¹ s⁻¹
- Km [7]: 9.95 µM
- Vmax [7]: 0.621 pmol*min-1*μg protein-1
- kcat [7]: 0.117 10-3 s-1
- kcat/Km [7]: 11.7 M⁻¹ s⁻¹
- Km [8]: 18.3 µM
- Vmax [8]: 0.163 pmol*min-1*μg protein-1
- kcat [8]: 0.0307 10-3 s-1
- kcat/Km [8]: 1.68 M⁻¹ s⁻¹
- Km [9]: 13.9 µM
- Vmax [9]: 2.04 pmol*min-1*μg protein-1
- kcat [9]: 0.385 10-3 s-1
- kcat/Km [9]: 27.7 M⁻¹ s⁻¹
- Km [10]: 11.1 µM
- Vmax [10]: 0.0295 pmol*min-1*μg protein-1
- kcat [10]: 0.00556 10-3 s-1
- kcat/Km [10]: 0.500 M⁻¹ s⁻¹
- Km [11]: 74.2 µM
- Vmax [11]: 0.163 pmol*min-1*μg protein-1
- kcat [11]: 0.0307 10-3 s-1
- kcat/Km [11]: 0.414 M⁻¹ s⁻¹
- Km [12]: 107 µM
- Vmax [12]: 2.57 pmol*min-1*μg protein-1
- kcat [12]: 0.485 10-3 s-1
- kcat/Km [12]: 4.52 M⁻¹ s⁻¹
- Km [13]: 30.3 µM
- Vmax [13]: 5.98 pmol*min-1*μg protein-1
- kcat [13]: 1.13 10-3 s-1
- kcat/Km [13]: 37.2 M⁻¹ s⁻¹
- Km [14]: 30.0 µM
- Vmax [14]: 0.183 pmol*min-1*μg protein-1
- kcat [14]: 0.0345 10-3 s-1
- kcat/Km [14]: 1.15 M⁻¹ s⁻¹
- Km [15]: 52.7 µM
- Vmax [15]: 0.505 pmol*min-1*μg protein-1
- kcat [15]: 0.0950 10-3 s-1
- kcat/Km [15]: 1.80 M⁻¹ s⁻¹
